7 sequences from the supplement of paper PMC11316812 can be followed below.

± gives the standard deviation of the averaged measurements.

In one data set the test system is MCF7. Nature of the data set: percentage of EdU-negative (G0-arrested) nuclei per well, 72 h; higher = more G0 arrest. The following applies: reference: sequence is the full UniProt precursor, the tested protein was the secreted form or ectodomain.
For the next data set, the system named is hTERT-HMEC. The data set is described as above. The settings on record: reference: sequence is the full UniProt precursor, the tested protein was the secreted form or ectodomain.
Setting [1] is: protein concentration 0.0225 µM.
Where [2] appears, read: protein concentration 0.023905 µM.
Setting [3] is: protein concentration 0.23905 µM.
Where [4] appears, read: protein concentration 0.0357143 µM.
Setting [5] is: protein concentration 0.357143 µM.
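Further: secreted proteins added to cultured cells, EdU pulse at the end, nuclei found by Hoechst imaging, EdU status from nuclear versus surrounding ring intensity ratio, PBS as neutral control.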

Take “MLVRRGARAGPRMPRGWTALCLLSLLPSGFMSLDNNGTATPELPTQGTFSNVSTNVSYQETTTPSTLGSTSLHPVSQHGNEATTNITETTVKFTSTSVITSVYGNTNSSVQSQTSVISTVFTTPANVSTPETTLKPSLSPGNVSDLSTTSTSLATSPTKPYTSSSPILSDIKAEIKCSGIREVKLTQGICLEQNKTSSCAEFKKDRGEGLARVLCGEEQADADAGAQVCSLLLAQSEVRPQCLLLVLANRTEISSKLQLMKKHQSDLKKLGILDFTEQDVASHQSYSQKTLIALVTSGALLAVLGITGYFLMNRRSWSPTGERLGEDPYYTENGGGQGYSSGPGTSPEAQGKASVNRGAQENGTGQATSRNGHSARQHVVADTEL”: the “percentage of EdU-negative” value in the data set with MCF7 (setting [1]) turned out to be 26.6 ± 1.4%; with MCF7 (protein concentration 0.225 µM), 27.23 ± 0.19%; in the data set on hTERT-HMEC (setting [1]) it was 5.14 ± 0.39%; in the data set with hTERT-HMEC (protein concentration 0.225 µM), 5.89 ± 0.59%.

On to “MSPHLTALLGLVLCLAQTIHTQEGALPRPSISAEPGTVISPGSHVTFMCRGPVGVQTFRLEREDRAKYKDSYNVFRLGPSESEARFHIDSVSEGNAGLYRCLYYKPPGWSEHSDFLELLVKESSGGPDSPDTEPGSSAGTVPGTEASGFDAP [Q6ISS4]”, for which the “percentage of EdU-negative” value was determined as 24.7 ± 0.63% with MCF7 (setting [1]), 27.9 ± 3.5% in the data set with MCF7 (protein concentration 0.225 µM), 4.81 ± 0.34% in the data set on hTERT-HMEC (setting [1]) and 6.43 ± 0.35% with hTERT-HMEC (protein concentration 0.225 µM).

“MPSLLVLTFSPCVLLGWALLAGGTGGGGVGGGGGGAGIGGGRQEREALPPQKIEVLVLLPQDDSYLFSLTRVRPAIEYALRSVEGNGTGRRLLPPGTRFQVAYEDSDCGNRALFSLVDRVAAARGAKPDLILGPVCEYAAAPVARLASHWDLPMLSAGALAAGFQHKDSEYSHLTRVAPAYAKMGEMMLALFRHHHWSRAALVYSDDKLERNCYFTLEGVHEVFQEEGLHTSIYSFDETKDLDLEDIVRNIQASERVVIMCASSDTIRSIMLVAHRHGMTSGDYAFFNIELFNSSSYGDGSWKRGDKHDFEAKQAYSSLQTVTLLRTVKPEFEKFSMEVKSSVEKQGLNMEDYVNMFVEGFHDAILLYVLALHEVLRAGYSKKDGGKIIQQTWNRTFEGIAGQVSIDANGDRYGDFSVIAMTDVEAGTQEVIGDYFGKEGRFEMRPNVKYPWGPLKLRIDENRIVEHTNSSPCKSSGGLEESAVTGIVVGALLGAGLLMAFYFFRKKYRITIERRTQQEESNLGKHRELREDSIRSHFSVA”: the “percentage of EdU-negative” value in the data set on MCF7 (setting [1]) is 24.88 ± 0.14%; with MCF7 (protein concentration 0.225 µM) it was 24.5 ± 1%; in the data set with hTERT-HMEC (setting [1]) it was 4.9 ± 0.22%; with hTERT-HMEC (protein concentration 0.225 µM), 6.51 ± 0.27%.

As to “MAPRRARGCRTLGLPALLLLLLLRPPATRGITCPPPMSVEHADIWVKSYSLYSRERYICNSGFKRKAGTSSLTECVLNKATNVAHWTTPSLKCIRDPALVHQRPAPPSTVTTAGVTPQPESLSPSGKEPAASSPSSNNTAATTAAIVPGSQLMPSKSPSTGTTEISSHESSHGTPSQTTAKNWELTASASHQPPGVYPQGHSDTTVAISTSTVLLCGLSAVSLLACYLKSRQTPPLASVEMEAMEALPVTWGTSSRDEDLENCSHHL”, the “percentage of EdU-negative” value in the data set with MCF7 (setting [2]) turned out to be 27.1 ± 0.76%; in the data set on MCF7 (setting [3]), 25.6 ± 2.6%; with hTERT-HMEC (setting [2]), 5.18 ± 0.25%; in the data set with hTERT-HMEC (setting [3]), 6.6 ± 0.68%.

In the case of “MKPNIIFVLSLLLILEKQAAVMGQKGGSKGRLPSEFSQFPHGQKGQHYSGQKGKQQTESKGSFSIQYTYHVDANDHDQSRKSQQYDLNALHKTTKSQRHLGGSQQLLHNKQEGRDHDKSKGHFHRVVIHHKGGKAHRGTQNPSQDQGNSPSGKGISSQYSNTEERLWVHGLSKEQTSVSGAQKGRKQGGSQSSYVLQTEELVANKQQRETKNSHQNKGHYQNVVEVREEHSSKVQTSLCPAHQDKLQHGSKDIFSTQDELLVYNKNQHQTKNLNQDQQHGRKANKISYQSSSTEERRLHYGENGVQKDVSQSSIYSQTEEKAQGKSQKQITIPSQEQEHSQKANKISYQSSSTEERRLHYGENGVQKDVSQRSIYSQTEKLVAGKSQIQAPNPKQEPWHGENAKGESGQSTNREQDLLSHEQKGRHQHGSHGGLDIVIIEQEDDSDRHLAQHLNNDRNPLFT”, the “percentage of EdU-negative” value was determined as 28.4 ± 1.1% with MCF7 (protein concentration 0.005 µM), 25.85 ± 0.061% with MCF7 (protein concentration 0.05 µM), 6.42 ± 0.18% with hTERT-HMEC (protein concentration 0.005 µM) and 6.06 ± 1.2% in the data set with hTERT-HMEC (protein concentration 0.05 µM).

“MAQTNSFFMLISSLMFLSLSQGQESQTELPNPRISCPEGTNAYRSYCYYFNEDPETWVDADLYCQNMNSGNLVSVLTQAEGAFVASLIKESSTDDSNVWIGLHDPKKNRRWHWSSGSLVSYKSWDTGSPSSANAGYCASLTSCSGFKKWKDESCEKKFSFVCKFKN”: the “percentage of EdU-negative” value was 27 ± 1.8% in the data set with MCF7 (setting [4]), 24.6 ± 0.83% in the data set on MCF7 (setting [5]), 5.51 ± 1.2% in the data set with hTERT-HMEC (setting [4]) and 5.35 ± 1.6% with hTERT-HMEC (setting [5]).

For “MCSTMSAPTCLAHLPPCFLLLALVLVPSDASGQSSRNDWQVLQPEGPMLVAEGETLLLRCMVVGSCTDGMIKWVKVSTQDQQEIYNFKRGSFPGVMPMIQRTSEPLNCDYSIYIHNVTREHTGTYHCVRFDGLSEHSEMKSDEGTSVLVKGAGDPEPDLWIIQPQELVLGTTGDTVFLNCTVLGDGPPGPIRWFQGAGLSREAIYNFGGISHPKETAVQASNNDFSILLQNVSSEDAGTYYCVKFQRKPNRQYLSGQGTSLKVKAKSTSSKEAEFTSEPATEMSPTGLLVVFAPVVLGLKAITLAALLLALATSRRSPGQEDVKTTGPAGAMNTLAWSKGQE [Q5JXA9]”, the “percentage of EdU-negative” value with MCF7 (setting [1]) was 28 ± 1.8%; with MCF7 (protein concentration 0.225 µM), 26.5 ± 3.1%; in the data set with hTERT-HMEC (setting [1]), 5.12 ± 0.92%; in the data set with hTERT-HMEC (protein concentration 0.225 µM), 5.14 ± 0.34%.
